Experiment [1] concerns the target Germline κI O18/O8 light chain variable domain (VL) (human).
The target is the same in experiment [2]. This is another data set of the same source.

On to “Germline κI O18/O8 light chain variable domain (VL) (domain or fragment)”, for which, in experiment [1], the t50 of de novo (nonseeded) ThT fibril formation of 20 µM κI, pH 2.0, 37 °C stood at 266 h. In experiment [2], this substance came in with a yield of de novo fibril formation (percent of the initial monomer in fibrils) of 93.4%.

The values are drawn from paper PMC4968207.
